The record followed here is patent publication US20210388110A1 (published 2021).

In this test the target is T1, soluble human CD3ε chain (human, UniProt P07766 23-126, limits assumed).
T1 construct: the text says soluble human CD3ε chain; also called human CD3 epsilon chain
Kind of test: SPR (Biacore).

T1 sequence (P07766 23-126 limits assumed): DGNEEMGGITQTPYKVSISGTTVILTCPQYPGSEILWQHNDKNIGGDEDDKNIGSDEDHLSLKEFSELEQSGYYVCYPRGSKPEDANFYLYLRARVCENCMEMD

B1: TR01H083-E22Hh/none-Hi-Kn010G3/L0212-k0 (antibody, human IgG1, kappa, L234A L235A, N297A)
heavy: QVQLVESGGGLVQPGRSLRLSCAASGFTFSNAWMHWVRQAPGKGLEWVAQIKDKSNNYATYYAESVKGRFTISRADSKNSIYLQMNSLKTEDTAVYYCRYVHYAAGYGVDIWGQGTTVTVSSASTKGPSVFPLAPSSKSTSGGTAALGCLVKDYFPEPVTVSWNSGALTSGVHTFPAVLQSSGLYSLSSVVTVPSSSLGTQTYICNVNHKPSNTKVDKKVEPKSCDKTHTCPPCPAPEAAGGPSVFLFPPKPKDTLMISRTPEVTCVVVDVSHEDPEVKFNWYVDGVEVHNAKTKPREEQYASTYRVVSVLTVLHQDWLNGKEYKCKVSNKALPAPIEKTISKAKGQPREPQVYTLPPSRCELTKNQVSLSCAVKGFYPSDIAVEWESNGQPENNYKTTPPVLDSDGSFFLVSKLTVDKSRWQQGNVFSCSVMHEALHNHYTQKSLSLSPDYKDDDDK
chain: EPKSSDKTHTCPPCPAPELLGGPSVFLFPPKPKDTLMISRTPEVTCVVVDVSHEDPEVKFNWYVDGVEVHNAKTKPREEQYNSTYRVVSVLTVLHQDWLNGKEYKCKVSNKALPAPIEKTISKAKGQPREPQVCTLPPSRDELTKNQVSLWCLVKGFYPSDIAVEWESNGQPENNYKTTPPVLDSDGSFFLYSKLTVDKSRWQQGNVFSCSVMHEALHNRYTQKSLSLSP
light: DIVMTQSPLSLPVTPGEPASISCRPSQSPVHSNRNTYLHWYQQKPGQAPRLLIYKVSNRFSGVPDRFSGSGSGTDFTLKISRVEAEDVGVYYCYQGTQVPYTFGQGTKLEIKRTVAAPSVFIFPPSDEQLKSGTASVVCLLNNFYPREAKVQWKVDNALQSGNSQESVTEQDSKDSTYSLSSTLTLSKADYEKHKVYACEVTHQGLSSPVTKSFNRGEC
notes: single-arm
In general, Kd refers to a measure of binding affinity in units of concentration. A higher Kd goes with weaker binding. In turn, B1 had a Kd of 0.0586 nM. This counts as picomolar.

B2: TR01H084-E22Hh/none-Hi-Kn010G3/L0201-k0 (antibody, human IgG1, kappa, L234A L235A, N297A)
heavy: QVQLVESGGGVVQPGGSLRLSCAASGFTFSNAWMHWVRQAPGKGLEWVAQIKDKSQNYATYYAESVKGRFTISRADSKNSIYLQMNSLKTEDTAVYYCRYVHYAAGYGVDIWGQGTTVTVSSASTKGPSVFPLAPSSKSTSGGTAALGCLVKDYFPEPVTVSWNSGALTSGVHTFPAVLQSSGLYSLSSVVTVPSSSLGTQTYICNVNHKPSNTKVDKKVEPKSCDKTHTCPPCPAPEAAGGPSVFLFPPKPKDTLMISRTPEVTCVVVDVSHEDPEVKFNWYVDGVEVHNAKTKPREEQYASTYRVVSVLTVLHQDWLNGKEYKCKVSNKALPAPIEKTISKAKGQPREPQVYTLPPSRCELTKNQVSLSCAVKGFYPSDIAVEWESNGQPENNYKTTPPVLDSDGSFFLVSKLTVDKSRWQQGNVFSCSVMHEALHNHYTQKSLSLSPDYKDDDDK
chain: EPKSSDKTHTCPPCPAPELLGGPSVFLFPPKPKDTLMISRTPEVTCVVVDVSHEDPEVKFNWYVDGVEVHNAKTKPREEQYNSTYRVVSVLTVLHQDWLNGKEYKCKVSNKALPAPIEKTISKAKGQPREPQVCTLPPSRDELTKNQVSLWCLVKGFYPSDIAVEWESNGQPENNYKTTPPVLDSDGSFFLYSKLTVDKSRWQQGNVFSCSVMHEALHNRYTQKSLSLSP
light: DIVMTQSPLSLPVTPGEPASISCRSSQPPVHSNRNTYLHWYQQKPGQAPRLLIYKVSNRFSGVPDRFSGSGSGTDFTLKISRVEAEDVGVYYCGQGTQVPYTFGQGTKLEIKRTVAAPSVFIFPPSDEQLKSGTASVVCLLNNFYPREAKVQWKVDNALQSGNSQESVTEQDSKDSTYSLSSTLTLSKADYEKHKVYACEVTHQGLSSPVTKSFNRGEC
notes: single-arm
For the molecule B2, the Kd is 16.5 nM. Compared with the last molecule, the Kd is about 280-fold higher.

B3: TR01H083-E22Hh/none-Hi-Kn010G3/L0222-k0 (antibody, human IgG1, kappa, L234A L235A, N297A)
heavy: QVQLVESGGGLVQPGRSLRLSCAASGFTFSNAWMHWVRQAPGKGLEWVAQIKDKSNNYATYYAESVKGRFTISRADSKNSIYLQMNSLKTEDTAVYYCRYVHYAAGYGVDIWGQGTTVTVSSASTKGPSVFPLAPSSKSTSGGTAALGCLVKDYFPEPVTVSWNSGALTSGVHTFPAVLQSSGLYSLSSVVTVPSSSLGTQTYICNVNHKPSNTKVDKKVEPKSCDKTHTCPPCPAPEAAGGPSVFLFPPKPKDTLMISRTPEVTCVVVDVSHEDPEVKFNWYVDGVEVHNAKTKPREEQYASTYRVVSVLTVLHQDWLNGKEYKCKVSNKALPAPIEKTISKAKGQPREPQVYTLPPSRCELTKNQVSLSCAVKGFYPSDIAVEWESNGQPENNYKTTPPVLDSDGSFFLVSKLTVDKSRWQQGNVFSCSVMHEALHNHYTQKSLSLSPDYKDDDDK
chain: EPKSSDKTHTCPPCPAPELLGGPSVFLFPPKPKDTLMISRTPEVTCVVVDVSHEDPEVKFNWYVDGVEVHNAKTKPREEQYNSTYRVVSVLTVLHQDWLNGKEYKCKVSNKALPAPIEKTISKAKGQPREPQVCTLPPSRDELTKNQVSLWCLVKGFYPSDIAVEWESNGQPENNYKTTPPVLDSDGSFFLYSKLTVDKSRWQQGNVFSCSVMHEALHNRYTQKSLSLSP
light: DIVMTQSPLSLPVTPGEPASISCRSSQSPVHSNRNTYIQWYQQKPGQAPRLLIYKVSNRFSGVPDRFSGSGSGTDFTLKISRVEAEDVGVYYCYQGTQVPYTFGQGTKLEIKRTVAAPSVFIFPPSDEQLKSGTASVVCLLNNFYPREAKVQWKVDNALQSGNSQESVTEQDSKDSTYSLSSTLTLSKADYEKHKVYACEVTHQGLSSPVTKSFNRGEC
notes: single-arm
B3 registered a Kd of 9.42 nM. This Kd lies about 1.8-fold lower than the previous one.

B4: TR01H083-E22Hh/none-Hi-Kn010G3/L0262-k0 (antibody, human IgG1, kappa, L234A L235A, N297A)
heavy: QVQLVESGGGLVQPGRSLRLSCAASGFTFSNAWMHWVRQAPGKGLEWVAQIKDKSNNYATYYAESVKGRFTISRADSKNSIYLQMNSLKTEDTAVYYCRYVHYAAGYGVDIWGQGTTVTVSSASTKGPSVFPLAPSSKSTSGGTAALGCLVKDYFPEPVTVSWNSGALTSGVHTFPAVLQSSGLYSLSSVVTVPSSSLGTQTYICNVNHKPSNTKVDKKVEPKSCDKTHTCPPCPAPEAAGGPSVFLFPPKPKDTLMISRTPEVTCVVVDVSHEDPEVKFNWYVDGVEVHNAKTKPREEQYASTYRVVSVLTVLHQDWLNGKEYKCKVSNKALPAPIEKTISKAKGQPREPQVYTLPPSRCELTKNQVSLSCAVKGFYPSDIAVEWESNGQPENNYKTTPPVLDSDGSFFLVSKLTVDKSRWQQGNVFSCSVMHEALHNHYTQKSLSLSPDYKDDDDK
chain: EPKSSDKTHTCPPCPAPELLGGPSVFLFPPKPKDTLMISRTPEVTCVVVDVSHEDPEVKFNWYVDGVEVHNAKTKPREEQYNSTYRVVSVLTVLHQDWLNGKEYKCKVSNKALPAPIEKTISKAKGQPREPQVCTLPPSRDELTKNQVSLWCLVKGFYPSDIAVEWESNGQPENNYKTTPPVLDSDGSFFLYSKLTVDKSRWQQGNVFSCSVMHEALHNRYTQKSLSLSP
light: DIVMTQSPLSLPVTPGEPASISCRSSQPPVHSNRNTYLHWYQQKPGQAPRLLIYKVSNRFSGVPDRFSGSGSGTDFTLKISRVEAEDVGVYYCAQGTQVPYTFGQGTKLEIKRTVAAPSVFIFPPSDEQLKSGTASVVCLLNNFYPREAKVQWKVDNALQSGNSQESVTEQDSKDSTYSLSSTLTLSKADYEKHKVYACEVTHQGLSSPVTKSFNRGEC
notes: single-arm
Molecule B4 yielded a Kd of 2.45 nM. This Kd lies about 3.8-fold lower than the previous one.

B5: TR01H084-E22Hh/none-Hi-Kn010G3/L0011-k0 (antibody, human IgG1, kappa, L234A L235A, N297A)
heavy: QVQLVESGGGVVQPGGSLRLSCAASGFTFSNAWMHWVRQAPGKGLEWVAQIKDKSQNYATYYAESVKGRFTISRADSKNSIYLQMNSLKTEDTAVYYCRYVHYAAGYGVDIWGQGTTVTVSSASTKGPSVFPLAPSSKSTSGGTAALGCLVKDYFPEPVTVSWNSGALTSGVHTFPAVLQSSGLYSLSSVVTVPSSSLGTQTYICNVNHKPSNTKVDKKVEPKSCDKTHTCPPCPAPEAAGGPSVFLFPPKPKDTLMISRTPEVTCVVVDVSHEDPEVKFNWYVDGVEVHNAKTKPREEQYASTYRVVSVLTVLHQDWLNGKEYKCKVSNKALPAPIEKTISKAKGQPREPQVYTLPPSRCELTKNQVSLSCAVKGFYPSDIAVEWESNGQPENNYKTTPPVLDSDGSFFLVSKLTVDKSRWQQGNVFSCSVMHEALHNHYTQKSLSLSPDYKDDDDK
chain: EPKSSDKTHTCPPCPAPELLGGPSVFLFPPKPKDTLMISRTPEVTCVVVDVSHEDPEVKFNWYVDGVEVHNAKTKPREEQYNSTYRVVSVLTVLHQDWLNGKEYKCKVSNKALPAPIEKTISKAKGQPREPQVCTLPPSRDELTKNQVSLWCLVKGFYPSDIAVEWESNGQPENNYKTTPPVLDSDGSFFLYSKLTVDKSRWQQGNVFSCSVMHEALHNRYTQKSLSLSP
light: DIVMTQSPLSLPVTPGEPASISCRSSQPLVHSNRNTYLHWYQQKPGQAPRLLIYKVSNRFSGVPDRFSGSGSGTDFTLKISRVEAEDVGVYYCGQGTQVPYTFGQGTKLEIKRTVAAPSVFIFPPSDEQLKSGTASVVCLLNNFYPREAKVQWKVDNALQSGNSQESVTEQDSKDSTYSLSSTLTLSKADYEKHKVYACEVTHQGLSSPVTKSFNRGEC
notes: single-arm
Molecule B5 came in with a Kd of 19.8 nM.

B6: TR01H084-E22Hh/none-Hi-Kn010G3/L0000-k0 (antibody, human IgG1, kappa, L234A L235A, N297A)
heavy: QVQLVESGGGVVQPGGSLRLSCAASGFTFSNAWMHWVRQAPGKGLEWVAQIKDKSQNYATYYAESVKGRFTISRADSKNSIYLQMNSLKTEDTAVYYCRYVHYAAGYGVDIWGQGTTVTVSSASTKGPSVFPLAPSSKSTSGGTAALGCLVKDYFPEPVTVSWNSGALTSGVHTFPAVLQSSGLYSLSSVVTVPSSSLGTQTYICNVNHKPSNTKVDKKVEPKSCDKTHTCPPCPAPEAAGGPSVFLFPPKPKDTLMISRTPEVTCVVVDVSHEDPEVKFNWYVDGVEVHNAKTKPREEQYASTYRVVSVLTVLHQDWLNGKEYKCKVSNKALPAPIEKTISKAKGQPREPQVYTLPPSRCELTKNQVSLSCAVKGFYPSDIAVEWESNGQPENNYKTTPPVLDSDGSFFLVSKLTVDKSRWQQGNVFSCSVMHEALHNHYTQKSLSLSPDYKDDDDK
chain: EPKSSDKTHTCPPCPAPELLGGPSVFLFPPKPKDTLMISRTPEVTCVVVDVSHEDPEVKFNWYVDGVEVHNAKTKPREEQYNSTYRVVSVLTVLHQDWLNGKEYKCKVSNKALPAPIEKTISKAKGQPREPQVCTLPPSRDELTKNQVSLWCLVKGFYPSDIAVEWESNGQPENNYKTTPPVLDSDGSFFLYSKLTVDKSRWQQGNVFSCSVMHEALHNRYTQKSLSLSP
light: DIVMTQSPLSLPVTPGEPASISCRSSQSLVHSNRNTYLHWYQQKPGQAPRLLIYKVSNRFSGVPDRFSGSGSGTDFTLKISRVEAEDVGVYYCGQGTQVPYTFGQGTKLEIKRTVAAPSVFIFPPSDEQLKSGTASVVCLLNNFYPREAKVQWKVDNALQSGNSQESVTEQDSKDSTYSLSSTLTLSKADYEKHKVYACEVTHQGLSSPVTKSFNRGEC
notes: single-arm
B6: binding was put at a Kd of 21.3 nM.
